Each block holds one substance with its values, some of them ahead of it.
How the values were obtained:
[1] = target: recombinant KIR2DL3 protein (entire extracellular domain, produced in E. coli, refolded) (human) (UniProt P43628); assay: BIAcore competition on KIR2DL3 chip; first Ab DF200, second Ab (competitor) 1-6F5
[2] = target: KIR2DL1(R131W)-hFc (human) (UniProt P43626); assay: ELISA, KIR2DL1(R131W)-hFc captured via goat anti-human antibodies, mAb titrated, peroxidase anti-mouse, A450 [panel DF200]
[3] = target: recombinant KIR2DL1 protein (entire extracellular domain, produced in E. coli, refolded) (human) (UniProt P43626); assay: BIAcore, second Ab on KIR2DL1 chip with first Ab (competitor) 1-6F5 bound
immobilized KIR2DS1 [4] = target: immobilized KIR2DS1 (UniProt Q14954); assay: BIAcore competition on KIR2DS1 chip; first Ab DF200, second Ab (competitor) 1-4F1
[5] = target: recombinant KIR2DL3 protein (entire extracellular domain, produced in E. coli, refolded) (human) (UniProt P43628); assay: BIAcore competition on KIR2DL3 chip; first Ab DF200, second Ab (competitor) gl183
[6] = target: recombinant KIR2DL1 protein (entire extracellular domain, produced in E. coli, refolded) (human) (UniProt P43626); assay: BIAcore competition on KIR2DL1 chip; first Ab DF200, second Ab (competitor) Pan2D
[7] = target: recombinant KIR2DL3 protein (entire extracellular domain, produced in E. coli, refolded) (human) (UniProt P43628); assay: BIAcore, direct binding of second Ab to KIR2DL3 chip (field of first Ab 1-6F1)
[8] = target: recombinant KIR2DL3 protein (entire extracellular domain, produced in E. coli, refolded) (human) (UniProt P43628); assay: BIAcore competition on KIR2DL3 chip; first Ab DF200, second Ab (competitor) 1-7F9
[9] = target: recombinant KIR2DL1 protein (entire extracellular domain, produced in E. coli, refolded) (human) (UniProt P43626); assay: BIAcore competition on KIR2DL1 chip; first Ab DF200, second Ab (competitor) 1-4F1
[10] = target: recombinant KIR2DL1 protein (entire extracellular domain, produced in E. coli, refolded) (human) (UniProt P43626); assay: BIAcore competition on KIR2DL1 chip; first Ab DF200, second Ab (competitor) EB6
[11] = target: recombinant KIR2DL3 protein (entire extracellular domain, produced in E. coli, refolded) (human) (UniProt P43628); assay: BIAcore, second Ab on KIR2DL3 chip with first Ab (competitor) 1-6F5 bound
[12] = target: recombinant KIR2DL1 protein (entire extracellular domain, produced in E. coli, refolded) (human) (UniProt P43626); assay: BIAcore, second Ab on KIR2DL1 chip with first Ab (competitor) 1-7F9 bound
[13] = target: recombinant KIR2DL1 protein (entire extracellular domain, produced in E. coli, refolded) (human) (UniProt P43626); assay: BIAcore, second Ab on KIR2DL1 chip with first Ab (competitor) 1-6F1 bound
[14] = target: recombinant KIR2DL3 protein (entire extracellular domain, produced in E. coli, refolded) (human) (UniProt P43628); assay: BIAcore, second Ab on KIR2DL3 chip with first Ab (competitor) 1-6F1 bound
immobilized KIR2DS1 [15] = target: immobilized KIR2DS1 (UniProt Q14954); assay: BIAcore competition on KIR2DS1 chip; first Ab DF200, second Ab (competitor) Pan2D
immobilized KIR2DS1 [16] = target: immobilized KIR2DS1 (UniProt Q14954); assay: BIAcore, second Ab on KIR2DS1 chip with first Ab (competitor) 1-7F9 bound
[17] = target: recombinant KIR2DL3 protein (entire extracellular domain, produced in E. coli, refolded) (human) (UniProt P43628); assay: BIAcore, direct binding of second Ab to KIR2DL3 chip (field of first Ab 1-7F9)
[18] = target: recombinant KIR2DL3 protein (entire extracellular domain, produced in E. coli, refolded) (human) (UniProt P43628); assay: BIAcore, direct binding of second Ab to KIR2DL3 chip (field of first Ab 1-4F1)
[19] = target: recombinant KIR2DL1 protein (entire extracellular domain, produced in E. coli, refolded) (human) (UniProt P43626); assay: BIAcore, direct binding of second Ab to KIR2DL1 chip (field of first Ab 1-6F1)
[20] = target: recombinant KIR2DL1 protein (entire extracellular domain, produced in E. coli, refolded) (human) (UniProt P43626); assay: BIAcore, direct binding of second Ab to KIR2DL1 chip (field of first Ab 1-7F9)
[21] = target: recombinant KIR2DL3 protein (entire extracellular domain, produced in E. coli, refolded) (human) (UniProt P43628); assay: BIAcore competition on KIR2DL3 chip; first Ab DF200, second Ab (competitor) 1-4F1
[22] = target: recombinant KIR2DL3 protein (entire extracellular domain, produced in E. coli, refolded) (human) (UniProt P43628); assay: BIAcore, second Ab on KIR2DL3 chip with first Ab (competitor) 1-4F1 bound
immobilized KIR2DS1 [23] = target: immobilized KIR2DS1 (UniProt Q14954); assay: BIAcore, direct binding of second Ab to KIR2DS1 chip (field of first Ab 1-7F9)
[24] = target: recombinant KIR2DL3 protein (entire extracellular domain, produced in E. coli, refolded) (human) (UniProt P43628); assay: BIAcore competition on KIR2DL3 chip; first Ab DF200, second Ab (competitor) Pan2D
[25] = target: recombinant KIR2DL1 protein (entire extracellular domain, produced in E. coli, refolded) (human) (UniProt P43626); assay: BIAcore, direct binding of second Ab to KIR2DL1 chip (field of first Ab 1-6F5)
[26] = target: KIR2DL1-hFc (complete extra-cellular domain of KIR2DL1, amino acids H1-H224, wild-type, fused to human Fc) (human) (UniProt P43626); assay: ELISA, KIR2DL1-hFc captured via goat anti-human antibodies, mAb titrated, peroxidase anti-mouse, A450 [panel DF200]
[27] = target: recombinant KIR2DL3 protein (entire extracellular domain, produced in E. coli, refolded) (human) (UniProt P43628); assay: BIAcore, second Ab on KIR2DL3 chip with first Ab (competitor) 1-7F9 bound
[28] = target: recombinant KIR2DL3 protein (entire extracellular domain, produced in E. coli, refolded) (human) (UniProt P43628); assay: BIAcore, direct binding of second Ab to KIR2DL3 chip (field of first Ab 1-6F5)
immobilized KIR2DS1 [29] = target: immobilized KIR2DS1 (UniProt Q14954); assay: BIAcore competition on KIR2DS1 chip; first Ab DF200, second Ab (competitor) 1-7F9
[30] = target: recombinant KIR2DL3 protein (entire extracellular domain, produced in E. coli, refolded) (human) (UniProt P43628); assay: BIAcore competition on KIR2DL3 chip; first Ab DF200, second Ab (competitor) 1-6F1
[31] = target: recombinant KIR2DL1 protein (entire extracellular domain, produced in E. coli, refolded) (human) (UniProt P43626); assay: BIAcore competition on KIR2DL1 chip; first Ab DF200, second Ab (competitor) 1-7F9
[32] = target: recombinant KIR2DL1 protein (entire extracellular domain, produced in E. coli, refolded) (human) (UniProt P43626); assay: BIAcore competition on KIR2DL1 chip; first Ab DF200, second Ab (competitor) 1-6F1
[33] = target: recombinant KIR2DL1 protein (entire extracellular domain, produced in E. coli, refolded) (human) (UniProt P43626); assay: BIAcore competition on KIR2DL1 chip; first Ab DF200, second Ab (competitor) 1-6F5
[34] = target: recombinant KIR2DL3 protein (entire extracellular domain, produced in E. coli, refolded) (human) (UniProt P43628); assay: BIAcore competition on KIR2DL3 chip; first Ab gl183, second Ab (competitor) 1-6F1
[35] = target: recombinant KIR2DL3 protein (entire extracellular domain, produced in E. coli, refolded) (human) (UniProt P43628); assay: BIAcore competition on KIR2DL3 chip; first Ab gl183, second Ab (competitor) 1-7F9
[36] = target: recombinant KIR2DL3 protein (entire extracellular domain, produced in E. coli, refolded) (human) (UniProt P43628); assay: BIAcore competition on KIR2DL3 chip; first Ab gl183, second Ab (competitor) 1-4F1
[37] = target: recombinant KIR2DL3 protein (entire extracellular domain, produced in E. coli, refolded) (human) (UniProt P43628); assay: BIAcore competition on KIR2DL3 chip; first Ab gl183, second Ab (competitor) Pan2D
[38] = target: recombinant KIR2DL3 protein (entire extracellular domain, produced in E. coli, refolded) (human) (UniProt P43628); assay: BIAcore competition on KIR2DL3 chip; first Ab gl183, second Ab (competitor) DF200

Chain of recombinant KIR2DL3 protein (entire extracellular domain, produced in E. coli, refolded) (human) (P43628 22-245): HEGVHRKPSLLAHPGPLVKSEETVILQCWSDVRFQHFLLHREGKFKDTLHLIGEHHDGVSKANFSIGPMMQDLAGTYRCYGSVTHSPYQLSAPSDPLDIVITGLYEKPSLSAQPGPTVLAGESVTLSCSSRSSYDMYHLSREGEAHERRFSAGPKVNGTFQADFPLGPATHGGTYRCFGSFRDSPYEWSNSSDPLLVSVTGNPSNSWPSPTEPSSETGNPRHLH
Chain of immobilized KIR2DS1 (Q14954 22-245 limits assumed): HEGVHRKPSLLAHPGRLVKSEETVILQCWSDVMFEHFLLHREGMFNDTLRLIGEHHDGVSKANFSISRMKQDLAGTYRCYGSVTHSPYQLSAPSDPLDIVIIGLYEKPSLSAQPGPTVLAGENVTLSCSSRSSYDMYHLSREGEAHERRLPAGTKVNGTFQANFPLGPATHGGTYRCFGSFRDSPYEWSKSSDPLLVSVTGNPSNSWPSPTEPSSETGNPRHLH
Chain of recombinant KIR2DL1 protein (entire extracellular domain, produced in E. coli, refolded) (human) (P43626 22-245): as the sequence (Q14954 22-245 limits assumed) above, with K70T, L90V, P114L, T154P, N163D, R182H, E216K counted along it
Chain of KIR2DL1(R131W)-hFc (human) (P43626 22-245 R152W): as the sequence (Q14954 22-245 limits assumed) above, with K70T, L90V, P114L, R131W, T154P, N163D, R182H, E216K counted along it
Chain of KIR2DL1-hFc (complete extra-cellular domain of KIR2DL1, amino acids H1-H224, wild-type, fused to human Fc) (human) (P43626 22-245): as the sequence (Q14954 22-245 limits assumed) above, with K70T, L90V, P114L, T154P, N163D, R182H, E216K counted along it

% inhibition of second Ab binding by first Ab [1]: 4%
EC50 (read off the curve) [2]: 20 nM
RU, binding with first Ab present (RU2) [3]: 290 RU
% inhibition of second Ab binding by first Ab (immobilized KIR2DS1 [4]): 87%
% inhibition of second Ab binding by first Ab [5]: 20%
% inhibition of second Ab binding by first Ab [6]: 80%
RU, direct binding (RU1) [7]: 790 RU
% inhibition of second Ab binding by first Ab [8]: 62%
% inhibition of second Ab binding by first Ab [9]: 92%
% inhibition of second Ab binding by first Ab [10]: 90%
RU, binding with first Ab present (RU2) [11]: 760 RU
RU, binding with first Ab present (RU2) [12]: 545 RU
RU, binding with first Ab present (RU2) [13]: 310 RU
RU, binding with first Ab present (RU2) [14]: 760 RU
% inhibition of second Ab binding by first Ab (immobilized KIR2DS1 [15]): 70%
RU, binding with first Ab present (RU2) (immobilized KIR2DS1 [16]): 1090 RU
RU, direct binding (RU1) [17]: 770 RU
RU, direct binding (RU1) [18]: 1140 RU
RU, direct binding (RU1) [19]: 350 RU
RU, direct binding (RU1) [20]: 600 RU
% inhibition of second Ab binding by first Ab [21]: 75%
RU, binding with first Ab present (RU2) [22]: 210 RU
RU, direct binding (RU1) (immobilized KIR2DS1 [23]): 900 RU
% inhibition of second Ab binding by first Ab [24]: 75%
RU, direct binding (RU1) [25]: 350 RU
EC50 (read off the curve) [26]: 20 nM
RU, binding with first Ab present (RU2) [27]: 450 RU
RU, direct binding (RU1) [28]: 800 RU
% inhibition of second Ab binding by first Ab (immobilized KIR2DS1 [29]): 15%
% inhibition of second Ab binding by first Ab [30]: 16%
% inhibition of second Ab binding by first Ab [31]: 27%
% inhibition of second Ab binding by first Ab [32]: 15%
% inhibition of second Ab binding by first Ab [33]: 15%
Substance: monoclonal antibody DF200 produced by hybridoma DF200

% inhibition of second Ab binding by first Ab [34]: 18%
RU, direct binding (RU1) [7]: 620 RU
% inhibition of second Ab binding by first Ab [35]: 76%
RU, binding with first Ab present (RU2) [14]: 570 RU
% inhibition of second Ab binding by first Ab [36]: 75%
RU, direct binding (RU1) [17]: 800 RU
RU, direct binding (RU1) [18]: 1240 RU
% inhibition of second Ab binding by first Ab [37]: 40%
RU, binding with first Ab present (RU2) [22]: 330 RU
% inhibition of second Ab binding by first Ab [38]: 8%
RU, binding with first Ab present (RU2) [27]: 200 RU
Substance: GL183 (IgG1 anti KIR2DL3) (antibody)

Reference: patent publication US20140193430A1
